Source: US20120115880A1

Molecular target: p53 (endogenous wild-type p53 of human retinoblastoma cells and human fetal retinal cells) (human) (UniProt P04637)
Assay: cell-based or functional assay

p53 (endogenous wild-type p53 of human retinoblastoma cells and human fetal retinal cells) (human), sequence (P04637 whole entry): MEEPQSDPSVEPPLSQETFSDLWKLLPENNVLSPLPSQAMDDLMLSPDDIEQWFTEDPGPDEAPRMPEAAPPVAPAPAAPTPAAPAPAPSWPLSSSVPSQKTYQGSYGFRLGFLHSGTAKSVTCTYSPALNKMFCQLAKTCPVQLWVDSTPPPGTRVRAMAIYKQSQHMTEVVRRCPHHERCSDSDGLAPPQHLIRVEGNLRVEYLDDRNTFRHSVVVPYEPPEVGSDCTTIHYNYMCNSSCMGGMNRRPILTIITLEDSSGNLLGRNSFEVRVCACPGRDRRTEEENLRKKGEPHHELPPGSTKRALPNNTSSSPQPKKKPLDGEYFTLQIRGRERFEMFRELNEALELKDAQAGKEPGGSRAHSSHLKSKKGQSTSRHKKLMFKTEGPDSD

Substance: MDMX (ectopically expressed from the FLAG-tagged MDMX cDNA)
- luciferase activity of the p53 reporter construct PG13 in retinoblastoma (Y79) cells: 19 fold
